Reference: US20240000892A1

Target: IL-2 receptor (CD25, CD122 and CD132) on Kupffer cells of C57BL/6 mice (mouse (C57BL/6)) (UniProt P01590)
Assay: cell-based or functional assay

UniProt P01590, sequence (P01590 22-268, chain 1 of 3): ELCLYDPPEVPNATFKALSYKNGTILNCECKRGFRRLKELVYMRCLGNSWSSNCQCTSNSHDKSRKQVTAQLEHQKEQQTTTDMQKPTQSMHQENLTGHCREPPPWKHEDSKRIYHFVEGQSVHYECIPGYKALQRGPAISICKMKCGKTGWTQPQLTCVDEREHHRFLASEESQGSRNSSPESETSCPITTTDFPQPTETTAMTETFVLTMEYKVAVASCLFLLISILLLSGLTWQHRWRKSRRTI
UniProt P01590, sequence (P16297 27-539, chain 2 of 3, further chain): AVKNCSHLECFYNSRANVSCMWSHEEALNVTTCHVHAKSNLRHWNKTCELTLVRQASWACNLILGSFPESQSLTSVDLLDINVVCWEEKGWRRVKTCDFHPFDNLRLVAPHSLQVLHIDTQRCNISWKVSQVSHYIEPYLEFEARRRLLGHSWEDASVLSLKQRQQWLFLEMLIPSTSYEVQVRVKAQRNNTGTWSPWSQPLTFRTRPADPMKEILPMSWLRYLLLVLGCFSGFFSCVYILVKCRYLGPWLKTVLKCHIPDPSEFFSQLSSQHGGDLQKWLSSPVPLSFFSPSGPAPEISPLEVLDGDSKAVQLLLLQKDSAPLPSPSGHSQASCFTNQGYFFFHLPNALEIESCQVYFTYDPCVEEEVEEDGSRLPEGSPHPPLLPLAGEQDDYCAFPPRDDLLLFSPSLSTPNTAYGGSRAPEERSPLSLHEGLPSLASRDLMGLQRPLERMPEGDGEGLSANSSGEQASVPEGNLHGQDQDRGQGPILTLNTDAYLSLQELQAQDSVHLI
UniProt P01590, sequence (P34902 23-369, chain 3 of 3, further chain): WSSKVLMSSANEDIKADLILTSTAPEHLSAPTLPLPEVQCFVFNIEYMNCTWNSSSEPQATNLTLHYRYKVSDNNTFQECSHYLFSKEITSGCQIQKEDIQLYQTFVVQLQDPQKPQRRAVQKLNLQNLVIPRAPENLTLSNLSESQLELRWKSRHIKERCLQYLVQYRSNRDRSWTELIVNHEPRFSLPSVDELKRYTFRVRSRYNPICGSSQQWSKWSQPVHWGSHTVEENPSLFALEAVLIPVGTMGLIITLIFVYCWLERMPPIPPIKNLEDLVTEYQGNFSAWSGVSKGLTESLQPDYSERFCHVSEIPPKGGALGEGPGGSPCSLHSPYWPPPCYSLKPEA

Substance: recombinant IL-2 (402 ML/CF, R&D Systems) (from UniProt P04351 21-169) (ligand)
- IL-2-dependent fold change in STAT5 phosphorylation in KCs, compared with CD4+ FoxP3+ splenic T regulatory cells: 10 fold lower
